The values that follow come from the Human Domainome abundance scans (Beltran et al. 2025).

± gives the uncertainty stated by the source.

This data set is described as follows: abundance fitness (aPCA) (normalised: wild type 0, dead -1); higher = more abundant; growth selection in yeast, the domain comes from the species named. The note with it: Homo sapiens.
For the substance “NEDD4-like E3 ubiquitin-protein ligase WWP2 D492C, O00308”, the abundance fitness is -0.146 ± 0.061.

As to “NEDD4-like E3 ubiquitin-protein ligase WWP2 D492E, O00308”, the abundance fitness was 0.039 ± 0.065.

In the case of “NEDD4-like E3 ubiquitin-protein ligase WWP2 D492F, O00308”, the abundance fitness was -0.217 ± 0.044.

On to “NEDD4-like E3 ubiquitin-protein ligase WWP2 D492G, O00308”, for which the abundance fitness was -0.158 ± 0.051.

In the case of “NEDD4-like E3 ubiquitin-protein ligase WWP2 D492I, O00308”, the abundance fitness was -0.212 ± 0.057.

As for “NEDD4-like E3 ubiquitin-protein ligase WWP2 D492K, O00308”, the abundance fitness was found to be 0.029 ± 0.074.

Take “NEDD4-like E3 ubiquitin-protein ligase WWP2 D492L, O00308”: the abundance fitness is -0.149 ± 0.061.

“NEDD4-like E3 ubiquitin-protein ligase WWP2 D492N, O00308”: the abundance fitness is -0.137 ± 0.069.

For the substance “NEDD4-like E3 ubiquitin-protein ligase WWP2 D492P, O00308”, the abundance fitness is -0.249 ± 0.076.

Regarding “NEDD4-like E3 ubiquitin-protein ligase WWP2 D492Q, O00308”, the abundance fitness is -0.043 ± 0.088.

“NEDD4-like E3 ubiquitin-protein ligase WWP2 D492R, O00308”: the abundance fitness was -0.223 ± 0.051.

Consider “NEDD4-like E3 ubiquitin-protein ligase WWP2 D492S, O00308”, for which the abundance fitness was -0.071 ± 0.053.

In the case of “NEDD4-like E3 ubiquitin-protein ligase WWP2 D492T, O00308”, the abundance fitness was -0.085 ± 0.073.

Turning to “NEDD4-like E3 ubiquitin-protein ligase WWP2 D492V, O00308”, the abundance fitness was -0.143 ± 0.049.

For the substance “NEDD4-like E3 ubiquitin-protein ligase WWP2 D492W, O00308”, the abundance fitness is -0.319 ± 0.033.

Consider “NEDD4-like E3 ubiquitin-protein ligase WWP2 D492Y, O00308”, for which the abundance fitness was -0.189 ± 0.033.

For “NEDD4-like E3 ubiquitin-protein ligase WWP2 E443A, O00308”, the abundance fitness was -0.065 ± 0.032.

For the substance “NEDD4-like E3 ubiquitin-protein ligase WWP2 E443C, O00308”, the abundance fitness was 0.004 ± 0.076.

As for “NEDD4-like E3 ubiquitin-protein ligase WWP2 E443D, O00308”, the abundance fitness was -0.06 ± 0.075.

“NEDD4-like E3 ubiquitin-protein ligase WWP2 E443F, O00308”: the abundance fitness was -0.287 ± 0.088.

Turning to “NEDD4-like E3 ubiquitin-protein ligase WWP2 E443G, O00308”, the abundance fitness was -0.091 ± 0.038.

On to “NEDD4-like E3 ubiquitin-protein ligase WWP2 E443H, O00308”, for which the abundance fitness is -0.082 ± 0.044.

“NEDD4-like E3 ubiquitin-protein ligase WWP2 E443I, O00308”: the abundance fitness is -0.093 ± 0.073.

Regarding “NEDD4-like E3 ubiquitin-protein ligase WWP2 E443K, O00308”, the abundance fitness is -0.062 ± 0.073.

Regarding “NEDD4-like E3 ubiquitin-protein ligase WWP2 E443L, O00308”, the abundance fitness was -0.183 ± 0.055.

Consider “NEDD4-like E3 ubiquitin-protein ligase WWP2 E443M, O00308”, for which the abundance fitness was -0.14 ± 0.055.

Regarding “NEDD4-like E3 ubiquitin-protein ligase WWP2 E443N, O00308”, the abundance fitness is -0.019 ± 0.08.

Take “NEDD4-like E3 ubiquitin-protein ligase WWP2 E443P, O00308”: the abundance fitness was -0.065 ± 0.064.

Take “NEDD4-like E3 ubiquitin-protein ligase WWP2 E443Q, O00308”: the abundance fitness was -0.205 ± 0.076.

On to “NEDD4-like E3 ubiquitin-protein ligase WWP2 E443R, O00308”, for which the abundance fitness is -0.174 ± 0.042.

Regarding “NEDD4-like E3 ubiquitin-protein ligase WWP2 E443T, O00308”, the abundance fitness was -0.248 ± 0.085.

Take “NEDD4-like E3 ubiquitin-protein ligase WWP2 E443V, O00308”: the abundance fitness was -0.087 ± 0.036.

In the case of “NEDD4-like E3 ubiquitin-protein ligase WWP2 E443W, O00308”, the abundance fitness is -0.185 ± 0.039.

For the substance “NEDD4-like E3 ubiquitin-protein ligase WWP2 E443Y, O00308”, the abundance fitness is 0.006 ± 0.058.

In the case of “NEDD4-like E3 ubiquitin-protein ligase WWP2 E451A, O00308”, the abundance fitness was -0.153 ± 0.056.

As to “NEDD4-like E3 ubiquitin-protein ligase WWP2 E451C, O00308”, the abundance fitness was -0.227 ± 0.063.

On to “NEDD4-like E3 ubiquitin-protein ligase WWP2 E451F, O00308”, for which the abundance fitness is -0.572 ± 0.083.

Regarding “NEDD4-like E3 ubiquitin-protein ligase WWP2 E451G, O00308”, the abundance fitness was -0.287 ± 0.037.

On to “NEDD4-like E3 ubiquitin-protein ligase WWP2 E451H, O00308”, for which the abundance fitness is -0.54 ± 0.089.

Turning to “NEDD4-like E3 ubiquitin-protein ligase WWP2 E451I, O00308”, the abundance fitness was -0.503 ± 0.091.

“NEDD4-like E3 ubiquitin-protein ligase WWP2 E451K, O00308”: the abundance fitness is -0.472 ± 0.076.

With “NEDD4-like E3 ubiquitin-protein ligase WWP2 E451L, O00308”, the abundance fitness is -0.415 ± 0.053.

As for “NEDD4-like E3 ubiquitin-protein ligase WWP2 E451M, O00308”, the abundance fitness is -0.122 ± 0.056.

For the substance “NEDD4-like E3 ubiquitin-protein ligase WWP2 E451N, O00308”, the abundance fitness is -0.342 ± 0.065.

Consider “NEDD4-like E3 ubiquitin-protein ligase WWP2 E451P, O00308”, for which the abundance fitness is -1.34 ± 0.3.

The substance “NEDD4-like E3 ubiquitin-protein ligase WWP2 E451Q, O00308” returned an abundance fitness of 0.066 ± 0.07.

“NEDD4-like E3 ubiquitin-protein ligase WWP2 E451S, O00308”: the abundance fitness is -0.072 ± 0.032.

Turning to “NEDD4-like E3 ubiquitin-protein ligase WWP2 E451T, O00308”, the abundance fitness is -0.229 ± 0.045.

On to “NEDD4-like E3 ubiquitin-protein ligase WWP2 E451V, O00308”, for which the abundance fitness was -0.113 ± 0.031.

“NEDD4-like E3 ubiquitin-protein ligase WWP2 E451W, O00308”: the abundance fitness is -1.18 ± 0.18.

As for “NEDD4-like E3 ubiquitin-protein ligase WWP2 E451Y, O00308”, the abundance fitness is -0.378 ± 0.071.

For “NEDD4-like E3 ubiquitin-protein ligase WWP2 E457A, O00308”, the abundance fitness was -0.081 ± 0.044.

Take “NEDD4-like E3 ubiquitin-protein ligase WWP2 E457C, O00308”: the abundance fitness was -0.155 ± 0.073.

As for “NEDD4-like E3 ubiquitin-protein ligase WWP2 E457D, O00308”, the abundance fitness is -0.068 ± 0.062.

As for “NEDD4-like E3 ubiquitin-protein ligase WWP2 E457F, O00308”, the abundance fitness was -0.253 ± 0.074.

Take “NEDD4-like E3 ubiquitin-protein ligase WWP2 E457G, O00308”: the abundance fitness is -0.116 ± 0.037.

“NEDD4-like E3 ubiquitin-protein ligase WWP2 E457H, O00308”: the abundance fitness was -0.089 ± 0.035.
